B1: LOXL2 (parent)
chain: FSPDGPSRFRKAYKPEQPLVRLRG

Variants of: B1
Assay: protein stability index of a GFP-peptide fusion (GPS, HEK-293T) (PSI 1-6); higher = more stable
Settings: c terminus: a fixed tail appended
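Further: lentivirally expressed fusions sorted by FACS into six bins by GFP to DsRed ratio, PSI derived from sequencing read proportions per bin multiplied by bin number.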

Protein stability index: each site, then its substitutions
R21: I 2.57; L 1.26; M 1.59; V 1.65; T 1.53; S 1.73; F 2.12; K 1.25; P 1.77; G 1.67; H 2.25; A 1.65; W 1.92; N 1.61; E 1.99; D 2; C 2.37; Y 1.86; Q 1.8
L22: C 1.95; W 1.47; Q 1.99; H 1.52; T 2.26; D 1.93; S 1.74; N 2.36; G 1.9; Y 1.75; E 1.68; F 1.21; M 2.04; A 2.32; R 2.35; K 1.58; P 2.05; I 2.42; V 1.54
G24: Y 1.85; R 2.79; W 2.07; C 2.27; T 1.38; V 2.73; P 1.82; N 1.91; H 1.52; E 1.91; K 1.69; A 2.71; M 2.72; I 1.44; D 1.8; F 1.73; Q 2.72; L 3.27; S 1.41
P18: I 1.95; F 1.11; S 1.8; H 2.03; Q 2.17; W 2.44; G 1.66; T 1.42; M 2; V 2.06; L 1.89; N 2.75; K 2.38; Y 1.65; D 2.04; E 1.82; R 1.86
V20: Y 2.17; E 1.74; G 1.41; F 2.99; M 2.05; P 1.92; C 1.85; I 2.62; T 1.92; K 1.37; A 2.26; Q 1.4; D 2.34; R 2.51; S 1.34; W 3.13; N 2.42; H 1.63; L 2
R23: W 2.25; V 1.98; T 1.33; P 1.85; K 1.53; S 1.82; I 2.31; M 2.33; Q 2.13; D 2.78; L 1.37; H 1.85; Y 1.2; F 1.97; E 2.46; A 1.89; N 1.29; G 1.96; C 2.39
L19: M 1.82; P 1.23; H 1.45; W 2.04; N 1.22; V 1.41; A 2.01; K 1.65; G 2.08; Q 2.56; Y 2.69; S 2.29; T 1.89; I 2.36; D 2.46; E 2.34
